The Kd is the concentration at which binding is half-saturated. A lower Kd goes with a tighter complex. As a reminder, the koff is a measure of how fast the partners let go of each other. For orientation: kon means a measure of how fast the partners come together.

Like-named read-outs stand apart in the source and are kept apart here.

For experiment [1], the target named is T1, Acro SARS-CoV-2 (COVID-19) S1 protein (SARS-CoV-2, UniProt P0DTC2 16-685).
T1 construct: also called SARS-CoV-2 S1
Put plainly: SPR. A general note: In SPR one partner is held on a chip, and binding of the other changes the refractive index at the surface.

Experiment [2] deals with T2, ACE2 (human, UniProt Q9BYF1 18-740).
The target in experiment [3] is T2, ACE2. This is another data set of the same source.

T2 sequence (Q9BYF1 18-740 limits assumed): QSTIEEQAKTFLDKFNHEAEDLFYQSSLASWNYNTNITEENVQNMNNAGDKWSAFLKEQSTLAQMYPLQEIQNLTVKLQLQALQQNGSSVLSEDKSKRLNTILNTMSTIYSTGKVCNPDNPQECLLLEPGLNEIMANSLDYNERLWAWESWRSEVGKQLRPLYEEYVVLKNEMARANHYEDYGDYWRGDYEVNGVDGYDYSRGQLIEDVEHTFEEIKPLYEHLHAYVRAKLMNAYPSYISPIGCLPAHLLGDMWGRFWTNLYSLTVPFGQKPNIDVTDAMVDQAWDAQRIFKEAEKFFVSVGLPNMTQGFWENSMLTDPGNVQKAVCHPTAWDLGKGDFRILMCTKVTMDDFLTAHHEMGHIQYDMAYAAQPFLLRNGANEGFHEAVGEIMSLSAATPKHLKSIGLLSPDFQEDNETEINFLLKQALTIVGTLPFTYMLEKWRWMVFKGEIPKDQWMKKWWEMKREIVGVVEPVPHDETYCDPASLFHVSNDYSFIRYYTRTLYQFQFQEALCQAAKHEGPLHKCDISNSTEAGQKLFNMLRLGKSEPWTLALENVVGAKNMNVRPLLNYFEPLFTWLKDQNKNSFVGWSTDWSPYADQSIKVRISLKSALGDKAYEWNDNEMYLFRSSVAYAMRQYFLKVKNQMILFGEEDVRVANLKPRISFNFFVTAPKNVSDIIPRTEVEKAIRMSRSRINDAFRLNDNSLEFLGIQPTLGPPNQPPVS

B1: variant 6-52 (Fc fusion)
VHH: EVQLVESGGGLVQPGGSLRLSCAASGDTYGSYWMGWFRQAPGKEREVVAAITSGGSTVYADSVKGRFTISADNSKNTAYLQMNSLKPEDTAVYYCARVDSRFDYWGQGTLVTVSS
In turn, B1 displayed a Kd in experiment [1] of 31.2 nM.

B2: ACE2 variant antibody 4-57 (VHH)
VHH: EVQLVESGGGLVQPGGSLRLSCAASGLTFRNYAMGWFRQAPGKEREFVAAIGSGGYTDYADSVKGRFTISADNSKNTAYLQMNSLKPEDTAVYYCAVKPGWVARDPSQYNWGQGTLVTVSS
In the experiment with ACE2 [2], B2 had a Kd of 7.8 nM, a koff of 0.00239 s⁻¹ and a kon of 307000 M⁻¹ s⁻¹. In the experiment with ACE2 [3], this molecule showed a koff of 0.00239 s⁻¹ and a kon of 307000 M⁻¹ s⁻¹.

B3: variant 6-63 (Fc fusion)
VHH: EVQLVESGGGLVQPGGSLRLSCAASGQTFNMGWFRQAPGKEREFVAAIGSGGSTSYADSVKGRFTISADNSKNTAYLQMNSLKPEDTAVYYCWRLGNDYFDYWGQGTLVTVSS
notes: also called VHH nanobody 6-63
B3 gave a Kd in experiment [1] of 21.8 nM.

B4: variant 6-3 (Fc fusion)
VHH: EVQLVESGGGLVQPGGSLRLSCAASGFTFSPSWMGWFRQAPGKEREFVATINEYGGRNYADSVKGRFTISADNSKNTAYLQMNSLKPEDTAVYYCARVDRDFDYWGQGTLVTVSS
As for B4, the Kd in experiment [1] was 12.4 nM.

B5: variant 6-5 (Fc fusion)
VHH: EVQLVESGGGLVQPGGSLRLSCAASGRTFTMGWFRQAPGKEREFVASTNSAGSTNYADSVNGRFTISADNSKNTAYLQMNSLKPEDTAVYYCTTVDQYFDYWGQGTLVTVSS
Consider B5, for which the Kd in experiment [1] was determined as 24.9 nM.

B6: ACE2 variant antibody 4-75 (VHH)
VHH: EVQLVESGGGLVQPGGSLRLSCAASGRTFGDDTMGWFRQAPGKEREFVAAINWTGGYTPYADSVKGRFTISADNSKNTAYLQMNSLKPEDTAVYYCATDPPLFWGQGTLVTVSS
In the experiment with ACE2 [2], B6 showed a Kd of 16 nM, a koff of 0.00478 s⁻¹ and a kon of 299000 M⁻¹ s⁻¹. In the experiment with ACE2 [3], this molecule displayed a koff of 0.00478 s⁻¹ and an on-rate constant (kon) of 299000 M⁻¹ s⁻¹.

B7: ACE2 variant antibody 4-82 (VHH)
VHH: EVQLVESGGGLVQPGGSLRLSCAASGRTFGDYAMGWFRQAPGKEREFVAAINWSGGYTRYADSVKGRFTISADNSKNTAYLQMNSLKPEDTAVYYCATDPPLFWGQGTLVTVSS
In the experiment with ACE2 [2], B7 registered a Kd of 11.1 nM, a koff of 0.00333 s⁻¹ and a kon of 301000 M⁻¹ s⁻¹. In the experiment with ACE2 [3], the koff was determined as 0.00333 s⁻¹ and the kon was 301000 M⁻¹ s⁻¹.

B8: ACE2 variant antibody 4-76 (VHH)
VHH: EVQLVESGGGLVQPGGSLRLSCAASGRTFGDYAMGWFRQAPGKERELVAPINWSGGSTYYADSVKGRFTISADNSKNTAYLQMNSLKPEDTAVYYCATDPPLFWGQGTLVTVSS
In the experiment with ACE2 [2], B8 returned a Kd of 31.8 nM, a koff of 0.00428 s⁻¹ and a kon of 135000 M⁻¹ s⁻¹. In the experiment with ACE2 [3], the koff is 0.00428 s⁻¹ and the kon came out at 135000 M⁻¹ s⁻¹.

B9: ACE2 variant antibody 4-78 (VHH)
VHH: EVQLVESGGGLVQPGGSLRLSCAASGRTFSDDTMGWFRQAPGKEREFVAGMTWSGSSTFYADSVKGRFTISADNSKNTAYLQMNSLKPEDTAVYYCATDPPLFWGQGTLVTVSS
For B9, in the experiment with ACE2 [2], the Kd is 10.7 nM, the koff was 0.00263 s⁻¹ and the kon is 247000 M⁻¹ s⁻¹. In the experiment with ACE2 [3], this molecule had a koff of 0.00263 s⁻¹ and a kon of 247000 M⁻¹ s⁻¹.

B10: variant 6-43 (Fc fusion)
VHH: EVQLVESGGGLVQPGGSLRLSCAASGRTFSSYAMMGWFRQAPGKEREFVASVNWDASQINYADSVKGRFTISADNSKNTAYLQMNSLKPEDTAVYYCTTLGAVYFDSSGYHDYFDYWGQGTLVTVSS
Regarding B10, binding in experiment [1] was characterised by a dissociation constant (Kd) of 17.9 nM. In other words, the double-digit nanomolar range.

B11: variant 6-46 (Fc fusion)
VHH: EVQLVESGGGLVQPGGSLRLSCAASGLTFSAMGWFRQAPGKEREFVALIRRDGSTIYADSVKGRFTISADNSKNTAYLQMNSLKPEDTAVYYCAALGILFGYDAFDIWGQGTLVTVSS
The molecule B11 displayed a Kd in experiment [1] of 18.1 nM. This Kd and that of the molecule before are within 1.5-fold of each other.

B12: variant 6-2 (Fc fusion)
VHH: EVQLVESGGGLVQPGGSLRLSCAASGFTMSSSWMGWFRQAPGKEREFVTVISGVGTSYADSVKGRFTISADNSKNTAYLQMNSLKPEDTAVYYCARGPDSSGYGFDYWGQGTLVTVSS
Regarding B12, in experiment [1], the Kd turned out to be 29.9 nM.

B13: ACE2 variant antibody 3-12 (antibody, V domains shown)
VH: EVQLLESGGGLVQPGGSLRLSCAASGFTFRSHAMNWVRQAPGKGLEWVSAISGSGGSTNYADSVKGRFTISRDNSKNTLYLQMNSLRAEDTAVYYCARGLKFLEWLPSAFDIWGQGTLVTVSS
VL: DIQMTQSPSSLSASVGDRVTITCRTSQSINTYLNWYQQKPGKAPKLLIYGASNVQSGVPSRFSGSGSGTDFTLTISSLQPEDFATYYCQQSYRIPRTFGQGTKVEIK
For the molecule B13, in the experiment with ACE2 [2], the Kd turned out to be 420 nM, the koff worked out at 0.00649 s⁻¹ and the kon was determined as 15500 M⁻¹ s⁻¹. Moreover, in the experiment with ACE2 [3], the koff came to 0.00649 s⁻¹ and the kon stood at 15500 M⁻¹ s⁻¹.

B14: variant 6-103 (Fc fusion)
VHH: EVQLVESGGGLVQPGGSLRLSCAASGRTSSPIAMGWFRQAPGKEREPVAVRWSDDYTYYADSVKGRFTISADNSKNTAYLQMNSLKPEDTAVYYCAKKLGGYYAFDIWGQGTLVTVSS
In experiment [1], B14 gave a dissociation constant (Kd) of 23.6 nM.

B15: ACE2 variant antibody 3-8 (antibody, V domains shown)
VH: EVQLLESGGGLVQPGGSLRLSCAASGFTFRSHAMSWVRQAPGKGLEWVSSISGGGASTYYADSVKGRFTISRDNSKNTLYLQMNSLRAEDTAVYYCARVKYLTTSSGWPRPYFDNWGQGTLVTVSS
VL: DIQMTQSPSSLSASVGDRVTITCRASQSIGKYLNWYQQKPGKAPKLLIYASSTLQRGVPSRFSGSGSGTDFTLTISSLQPEDFATYYCQQSLSTPFTFGQGTKVEIK
For the molecule B15, in the experiment with ACE2 [2], the Kd stood at 44.6 nM, the koff was found to be 0.00509 s⁻¹ and the kon was found to be 114000 M⁻¹ s⁻¹. For the same molecule, in the experiment with ACE2 [3], the koff is 0.00509 s⁻¹ and the kon came to 114000 M⁻¹ s⁻¹.

B16: ACE2 variant antibody 3-13 (antibody, V domains shown)
VH: EVQLLESGGGLVQPGGSLRLSCAASGFTITNYAMSWVRQAPGKGLEWVSGISGSGAGTYYADSVKGRFTISRDNSKNTLYLQMNSLRAEDTAVYYCARHTWWKGAGFFDHWGQGTLVTVSS
VL: DIQMTQSPSSLSASVGDRVTITCRASQSIGRYLNWYQQKPGKAPKLLIYAASSLKSGVPSRFSGSGSGTDFTLTISSLQPEDFATYYCQQSYSLPRTFGQGTKVEIK
In the experiment with ACE2 [2], B16 registered a Kd of 126 nM, a koff of 0.0102 s⁻¹ and an association rate constant (kon) of 80900 M⁻¹ s⁻¹. Moreover, in the experiment with ACE2 [3], the koff was found to be 0.0102 s⁻¹ and the kon is 80900 M⁻¹ s⁻¹.

B17: ACE2 variant antibody 3-9 (antibody, V domains shown)
VH: EVQLLESGGGLVQPGGSLRLSCAASGFTFRSYAMSWVRQAPGKGLEWVSSISGGGASTYYADSVKGRFTISRDNSKNTLYLQMNSLRAEDTAVYYCARVKYLTTSSGWPRPYFDNWGQGTLVTVSS
VL: DIQMTQSPSSLSASVGDRVTITCRASQSIGKYLNWYQQKPGKAPKLLIYASSTLQRGVPSRFSGSGSGTDFTLTISSLQPEDFATYYCQQSFSTPFTFGQGTKVEIK
As to B17, in the experiment with ACE2 [2], the Kd was found to be 68 nM, the koff is 0.00569 s⁻¹ and the kon turned out to be 83600 M⁻¹ s⁻¹. In the experiment with ACE2 [3], this molecule displayed a koff of 0.00569 s⁻¹ and a kon of 83600 M⁻¹ s⁻¹.

B18: variant 6-81 (Fc fusion)
VHH: EVQLVESGGGLVQPGGSLRLSCAASGFIGNYHAMGWFRQAPGKEREFVAAVTWSGGTTNYADSVKGRFTISADNSKNTAYLQMNSLKPEDTAVYYCAREGYYYDSSGYPYYFDYWGQGTLVTVSS
In experiment [1], B18 gave a Kd of 12.9 nM.

B19: ACE2 variant antibody 4-25 (VHH)
VHH: EVQLVESGGGLVQPGGSLRLSCAASGGTFSRYAMGWFRQAPGKEREWVSAVDSGGSTYYADSVKGRFTISADNSKNTAYLQMNSLKPEDTAVYYCAASPSLRSAWQWGQGTLVTVSS
As for B19, in the experiment with ACE2 [2], binding was characterised by a dissociation constant (Kd) of 38.5 nM, the off-rate (koff) came to 0.00303 s⁻¹ and the kon was determined as 78700 M⁻¹ s⁻¹. Further, in the experiment with ACE2 [3], the koff is 0.00303 s⁻¹ and the kon turned out to be 78700 M⁻¹ s⁻¹.

B20: variant 6-37 (Fc fusion)
VHH: EVQLVESGGGLVQPGGSLRLSCAASGHTFSTSWMGWFRQAPGKEREFVATINSLGGTNYADSVKGRFTISADNSKNTAYLQMNSLKPEDTAVYYCARVSSGDYGMDVWGQGTLVTVSS
B20: binding in experiment [1] was characterised by a dissociation constant (Kd) of 22.5 nM.

B21: ACE2 variant antibody 4-56 (VHH)
VHH: EVQLVESGGGLVQPGGSLRLSCAASGFSLDYYGMGWFRQAPGKERESVAAISWNGDFTAYADSVKGRFTISADNSKNTAYLQMNSLKPEDTAVYYCAKRANPTGAYFDYWGQGTLVTVSS
In the experiment with ACE2 [2], B21 displayed an equilibrium dissociation constant (Kd) of 18.2 nM, an off-rate constant (koff) of 0.00237 s⁻¹ and a kon of 130000 M⁻¹ s⁻¹. In the experiment with ACE2 [3], the koff amounted to 0.00237 s⁻¹ and the kon came to 130000 M⁻¹ s⁻¹.

B22: ACE2 variant antibody 4-52 (VHH)
VHH: EVQLVESGGGLVQPGGSLRLSCAASGRSFSNSVMGWFRQAPGKEREFVARITWNGGSTYYADSVKGRFTISADNSKNTAYLQMNSLKPEDTAVYYCATTENPNPRWGQGTLVTVSS
Turning to B22, in the experiment with ACE2 [2], the Kd came out at 11.8 nM, the koff worked out at 0.00149 s⁻¹ and the kon amounted to 126000 M⁻¹ s⁻¹. For the same molecule, in the experiment with ACE2 [3], the koff came out at 0.00149 s⁻¹ and the kon worked out at 126000 M⁻¹ s⁻¹.

B23: ACE2 variant antibody 4-39 (VHH)
VHH: EVQLVESGGGLVQPGGSLRLSCAASGRTFSNAAMGWFRQAPGKEREFVARILWTGASRNYADSVKGRFTISADNSKNTAYLQMNSLKPEDTAVYYCATTENPNPRWGQGTLVTVSS
In the experiment with ACE2 [2], B23 yielded a Kd of 101 nM, a koff of 0.0137 s⁻¹ and a kon of 136000 M⁻¹ s⁻¹. Besides, in the experiment with ACE2 [3], the koff amounted to 0.0137 s⁻¹ and the kon was found to be 136000 M⁻¹ s⁻¹.

B24: variant 6-9 (Fc fusion)
VHH: EVQLVESGGGLVQPGGSLRLSCAASGFTFDYYAMGWFRQAPGKEREFVSAIDSEGRTSYADSVKGRFTISADNSKNTAYLQMNSLKPEDTAVYYCARWGPFDIWGQGTLVTVSS
On to B24, for which, in experiment [1], the equilibrium dissociation constant (Kd) worked out at 18.5 nM.

The values are drawn from patent publication US20210355194A1 (TWIST BIOSCIENCE, published 2021).
